The values below come from article PMC6328869, “Functional and structural studies of tolloid-like 1 mutants associated with atrial-septal defect 6” (Bioscience Reports, 2018).

In general, Kd refers to the equilibrium constant for the complex coming apart. Broadly, the koff is the rate constant with which the complex falls apart. The kon is the rate constant with which the complex forms.

In experiment [1] the target is T1, recombinant murine chordin (murine, UniProt Q9Z0E2 27-948).
T1 construct: Chordin, murine, recombinant (R&D Systems); The source and species of chordin are told for the cleavage assay; source: bought: R&D Systems
T1 sequence (looked up): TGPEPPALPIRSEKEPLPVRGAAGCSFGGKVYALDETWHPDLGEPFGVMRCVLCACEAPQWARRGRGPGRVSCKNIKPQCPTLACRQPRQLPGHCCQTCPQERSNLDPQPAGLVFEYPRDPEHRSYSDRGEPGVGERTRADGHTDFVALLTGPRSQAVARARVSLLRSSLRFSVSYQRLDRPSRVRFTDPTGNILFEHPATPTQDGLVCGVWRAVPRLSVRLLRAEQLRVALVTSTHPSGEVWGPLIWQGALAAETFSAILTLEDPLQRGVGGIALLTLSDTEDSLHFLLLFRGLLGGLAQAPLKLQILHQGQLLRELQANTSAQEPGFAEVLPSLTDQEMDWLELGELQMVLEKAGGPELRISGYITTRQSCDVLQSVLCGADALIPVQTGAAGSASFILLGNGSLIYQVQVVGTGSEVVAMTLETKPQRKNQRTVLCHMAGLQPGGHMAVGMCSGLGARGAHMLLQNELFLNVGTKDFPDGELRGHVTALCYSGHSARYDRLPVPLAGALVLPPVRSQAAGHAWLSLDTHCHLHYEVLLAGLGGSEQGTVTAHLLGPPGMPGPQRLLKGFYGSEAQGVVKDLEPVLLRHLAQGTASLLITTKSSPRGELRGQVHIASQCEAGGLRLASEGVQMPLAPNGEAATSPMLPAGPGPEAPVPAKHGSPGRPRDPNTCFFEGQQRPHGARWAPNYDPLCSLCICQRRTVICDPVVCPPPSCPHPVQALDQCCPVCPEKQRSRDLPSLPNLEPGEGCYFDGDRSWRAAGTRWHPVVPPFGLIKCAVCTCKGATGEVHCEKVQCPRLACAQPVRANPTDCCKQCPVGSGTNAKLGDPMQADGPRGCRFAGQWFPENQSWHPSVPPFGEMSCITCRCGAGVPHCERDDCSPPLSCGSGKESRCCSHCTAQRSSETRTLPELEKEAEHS
Put plainly: SPR; Sensiq Pioneer biosensor; chordin amine-coupled (NHS/EDC, 10 mM acetate pH 4.5) to a COOH1 SPR chip; TLL1 variant as free analyte at 10-400 nM, 10 ul/min for 11 min; HBS-TE (HEPES-buffered saline, 0.005% Tween 20), 25 °C; regeneration with 10 mM HCl; global fitting; Kd from koff/kon. Particulars: both partners purified.

Experiment [2] has as its target T1, recombinant murine chordin. Put plainly: cell-based or functional assay.

B1: recombinant wild-type mammalian tolloid-like 1 (TLL1) (enzyme, human, UniProt O43897-1 148-1013, looked up)
chain: AATSRTERIWPGGVIPYVIGGNFTGSQRAMFKQAMRHWEKHTCVTFIERSDEESYIVFTYRPCGCCSYVGRRGNGPQAISIGKNCDKFGIVVHELGHVIGFWHEHTRPDRDNHVTIIRENIQPGQEYNFLKMEPGEVNSLGERYDFDSIMHYARNTFSRGMFLDTILPSRDDNGIRPAIGQRTRLSKGDIAQARKLYRCPACGETLQESNGNLSSPGFPNGYPSYTHCIWRVSVTPGEKIVLNFTTMDLYKSSLCWYDYIEVRDGYWRKSPLLGRFCGDKLPEVLTSTDSRMWIEFRSSSNWVGKGFAAVYEAICGGEIRKNEGQIQSPNYPDDYRPMKECVWKITVSESYHVGLTFQSFEIERHDNCAYDYLEVRDGTSENSPLIGRFCGYDKPEDIRSTSNTLWMKFVSDGTVNKAGFAANFFKEEDECAKPDRGGCEQRCLNTLGSYQCACEPGYELGPDRRSCEAACGGLLTKLNGTITTPGWPKEYPPNKNCVWQVVAPTQYRISVKFEFFELEGNEVCKYDYVEIWSGLSSESKLHGKFCGAEVPEVITSQFNNMRIEFKSDNTVSKKGFKAHFFSDKDECSKDNGGCQHECVNTMGSYMCQCRNGFVLHDNKHDCKEAECEQKIHSPSGLITSPNWPDKYPSRKECTWEISATPGHRIKLAFSEFEIEQHQECAYDHLEVFDGETEKSPILGRLCGNKIPDPLVATGNKMFVRFVSDASVQRKGFQATHSTECGGRLKAESKPRDLYSHAQFGDNNYPGQVDCEWLLVSERGSRLELSFQTFEVEEEADCGYDYVELFDGLDSTAVGLGRFCGSGPPEEIYSIGDSVLIHFHTDDTINKKGFHIRYKSIRYPDTTHTKK
notes: Human tolloid-like 1 (TLL1), functional enzyme lacking the signal peptide and the latency pro-domain; encoded by nucleotides 1089-3686 of NM_012464.4 (mRNA variant 1 TLL1); Expressed behind the signal peptide of the procollagen I alpha 1 chain (nucleotides 5127-5192 of NM_007400.1 as printed) for secretion; also called WT; native TLL1; source: HT-1080 cells, stably transfected (pIRESneo3), …
Take B1: in experiment [1], the Ka came out at 8.6e+06 M⁻¹, the Kd was determined as 0.117 µM, the koff is 0.000305 s⁻¹ and the kon came to 2600 M⁻¹ s⁻¹.

B2: recombinant TLL1 mutated variant M182L (enzyme, human, UniProt O43897-1 148-1013, looked up)
chain: AATSRTERIWPGGVIPYVIGGNFTGSQRAMFKQALRHWEKHTCVTFIERSDEESYIVFTYRPCGCCSYVGRRGNGPQAISIGKNCDKFGIVVHELGHVIGFWHEHTRPDRDNHVTIIRENIQPGQEYNFLKMEPGEVNSLGERYDFDSIMHYARNTFSRGMFLDTILPSRDDNGIRPAIGQRTRLSKGDIAQARKLYRCPACGETLQESNGNLSSPGFPNGYPSYTHCIWRVSVTPGEKIVLNFTTMDLYKSSLCWYDYIEVRDGYWRKSPLLGRFCGDKLPEVLTSTDSRMWIEFRSSSNWVGKGFAAVYEAICGGEIRKNEGQIQSPNYPDDYRPMKECVWKITVSESYHVGLTFQSFEIERHDNCAYDYLEVRDGTSENSPLIGRFCGYDKPEDIRSTSNTLWMKFVSDGTVNKAGFAANFFKEEDECAKPDRGGCEQRCLNTLGSYQCACEPGYELGPDRRSCEAACGGLLTKLNGTITTPGWPKEYPPNKNCVWQVVAPTQYRISVKFEFFELEGNEVCKYDYVEIWSGLSSESKLHGKFCGAEVPEVITSQFNNMRIEFKSDNTVSKKGFKAHFFSDKDECSKDNGGCQHECVNTMGSYMCQCRNGFVLHDNKHDCKEAECEQKIHSPSGLITSPNWPDKYPSRKECTWEISATPGHRIKLAFSEFEIEQHQECAYDHLEVFDGETEKSPILGRLCGNKIPDPLVATGNKMFVRFVSDASVQRKGFQATHSTECGGRLKAESKPRDLYSHAQFGDNNYPGQVDCEWLLVSERGSRLELSFQTFEVEEEADCGYDYVELFDGLDSTAVGLGRFCGSGPPEEIYSIGDSVLIHFHTDDTINKKGFHIRYKSIRYPDTTHTKK
notes: Human tolloid-like 1 (TLL1), functional enzyme lacking the signal peptide and the latency pro-domain; encoded by nucleotides 1089-3686 of NM_012464.4 (mRNA variant 1 TLL1); mutation found in ASD6 patients, in the catalytic domain; Same construct as m1 (procollagen I alpha 1 signal peptide for secretion, C-terminal 7xHis) with the point mutation; also called Met182Leu; mutation 1; source: HT-1080 …
In the case of B2, in experiment [2], the “cleavage of chordin (densitometry of the intact chordin band after SDS/PAGE), activity against wild-type TLL1” value is 50 % lower than wild-type TLL1. For the same molecule, in experiment [1], the Ka came to 24000 M⁻¹, the Kd came out at 42 µM, the koff turned out to be 0.0018 s⁻¹ and the kon stood at 43 M⁻¹ s⁻¹.

B3: recombinant TLL1 mutated variant V238A (enzyme, human, UniProt O43897-1 148-1013, looked up)
chain: AATSRTERIWPGGVIPYVIGGNFTGSQRAMFKQAMRHWEKHTCVTFIERSDEESYIVFTYRPCGCCSYVGRRGNGPQAISIGKNCDKFGIAVHELGHVIGFWHEHTRPDRDNHVTIIRENIQPGQEYNFLKMEPGEVNSLGERYDFDSIMHYARNTFSRGMFLDTILPSRDDNGIRPAIGQRTRLSKGDIAQARKLYRCPACGETLQESNGNLSSPGFPNGYPSYTHCIWRVSVTPGEKIVLNFTTMDLYKSSLCWYDYIEVRDGYWRKSPLLGRFCGDKLPEVLTSTDSRMWIEFRSSSNWVGKGFAAVYEAICGGEIRKNEGQIQSPNYPDDYRPMKECVWKITVSESYHVGLTFQSFEIERHDNCAYDYLEVRDGTSENSPLIGRFCGYDKPEDIRSTSNTLWMKFVSDGTVNKAGFAANFFKEEDECAKPDRGGCEQRCLNTLGSYQCACEPGYELGPDRRSCEAACGGLLTKLNGTITTPGWPKEYPPNKNCVWQVVAPTQYRISVKFEFFELEGNEVCKYDYVEIWSGLSSESKLHGKFCGAEVPEVITSQFNNMRIEFKSDNTVSKKGFKAHFFSDKDECSKDNGGCQHECVNTMGSYMCQCRNGFVLHDNKHDCKEAECEQKIHSPSGLITSPNWPDKYPSRKECTWEISATPGHRIKLAFSEFEIEQHQECAYDHLEVFDGETEKSPILGRLCGNKIPDPLVATGNKMFVRFVSDASVQRKGFQATHSTECGGRLKAESKPRDLYSHAQFGDNNYPGQVDCEWLLVSERGSRLELSFQTFEVEEEADCGYDYVELFDGLDSTAVGLGRFCGSGPPEEIYSIGDSVLIHFHTDDTINKKGFHIRYKSIRYPDTTHTKK
notes: Human tolloid-like 1 (TLL1), functional enzyme lacking the signal peptide and the latency pro-domain; encoded by nucleotides 1089-3686 of NM_012464.4 (mRNA variant 1 TLL1); mutation found in ASD6 patients, in the catalytic domain; Same construct as m1 (procollagen I alpha 1 signal peptide for secretion, C-terminal 7xHis) with the point mutation; also called Val238Ala; mutation 2; source: HT-1080 …
As to B3, the “cleavage of chordin (densitometry of the intact chordin band after SDS/PAGE), activity against wild-type TLL1” value in experiment [2] was ~25 % lower than wild-type TLL1. In experiment [1], the Ka came to 55000 M⁻¹, the dissociation constant Kd came to 18 µM, the koff was 0.0006 s⁻¹ and the on-rate (kon) came to 33 M⁻¹ s⁻¹.

B4: recombinant TLL1 mutated variant I629V (enzyme, human, UniProt O43897-1 148-1013, looked up)
chain: AATSRTERIWPGGVIPYVIGGNFTGSQRAMFKQAMRHWEKHTCVTFIERSDEESYIVFTYRPCGCCSYVGRRGNGPQAISIGKNCDKFGIVVHELGHVIGFWHEHTRPDRDNHVTIIRENIQPGQEYNFLKMEPGEVNSLGERYDFDSIMHYARNTFSRGMFLDTILPSRDDNGIRPAIGQRTRLSKGDIAQARKLYRCPACGETLQESNGNLSSPGFPNGYPSYTHCIWRVSVTPGEKIVLNFTTMDLYKSSLCWYDYIEVRDGYWRKSPLLGRFCGDKLPEVLTSTDSRMWIEFRSSSNWVGKGFAAVYEAICGGEIRKNEGQIQSPNYPDDYRPMKECVWKITVSESYHVGLTFQSFEIERHDNCAYDYLEVRDGTSENSPLIGRFCGYDKPEDIRSTSNTLWMKFVSDGTVNKAGFAANFFKEEDECAKPDRGGCEQRCLNTLGSYQCACEPGYELGPDRRSCEAACGGLLTKLNGTVTTPGWPKEYPPNKNCVWQVVAPTQYRISVKFEFFELEGNEVCKYDYVEIWSGLSSESKLHGKFCGAEVPEVITSQFNNMRIEFKSDNTVSKKGFKAHFFSDKDECSKDNGGCQHECVNTMGSYMCQCRNGFVLHDNKHDCKEAECEQKIHSPSGLITSPNWPDKYPSRKECTWEISATPGHRIKLAFSEFEIEQHQECAYDHLEVFDGETEKSPILGRLCGNKIPDPLVATGNKMFVRFVSDASVQRKGFQATHSTECGGRLKAESKPRDLYSHAQFGDNNYPGQVDCEWLLVSERGSRLELSFQTFEVEEEADCGYDYVELFDGLDSTAVGLGRFCGSGPPEEIYSIGDSVLIHFHTDDTINKKGFHIRYKSIRYPDTTHTKK
notes: Human tolloid-like 1 (TLL1), functional enzyme lacking the signal peptide and the latency pro-domain; encoded by nucleotides 1089-3686 of NM_012464.4 (mRNA variant 1 TLL1); mutation found in ASD6 patients, in the CUB3 domain; Same construct as m1 (procollagen I alpha 1 signal peptide for secretion, C-terminal 7xHis) with the point mutation; also called Ile629Val; mutation 3; source: HT-1080 …
In the case of B4, the “cleavage of chordin (densitometry of the intact chordin band after SDS/PAGE), activity against wild-type TLL1” value in experiment [2] was ~25 % lower than wild-type TLL1. In experiment [1], the Ka amounted to 41000 M⁻¹, the Kd was 25 µM, the off-rate constant (koff) turned out to be 0.00091 s⁻¹ and the kon turned out to be 37 M⁻¹ s⁻¹.
